The values below come from patent publication US20210179680A1, “POLYPEPTIDE, DERIVATIVES THEREOF, AND APPLICATION THEREOF IN PREPARATION OF DRUGS HAVING RESISTANCE TO PULMONARY FIBROSIS” (priority 2016, published 2021).

B1: polypeptide MR2 (peptide)
peptide: HLMACFTCAKKLKKR
notes: Synthetic unmodified 15-mer; also called MR2 polypeptide

Bridge positions count the residues as written; N and C are the ends. Square brackets hold non-standard residues; d marks the D form. Ends that are not written are not given here. S5 = C=CCCC[C@](C)(N)C(=O)O

The target of this assay is T1, Purified TRB3 protein (purchased from RD) (UniProt Q96RU7 1-358, limits assumed).
T1 construct: Amine-coupled to the Biacore chip; also called Tribbles Homologue 3
T1 sequence (looked up): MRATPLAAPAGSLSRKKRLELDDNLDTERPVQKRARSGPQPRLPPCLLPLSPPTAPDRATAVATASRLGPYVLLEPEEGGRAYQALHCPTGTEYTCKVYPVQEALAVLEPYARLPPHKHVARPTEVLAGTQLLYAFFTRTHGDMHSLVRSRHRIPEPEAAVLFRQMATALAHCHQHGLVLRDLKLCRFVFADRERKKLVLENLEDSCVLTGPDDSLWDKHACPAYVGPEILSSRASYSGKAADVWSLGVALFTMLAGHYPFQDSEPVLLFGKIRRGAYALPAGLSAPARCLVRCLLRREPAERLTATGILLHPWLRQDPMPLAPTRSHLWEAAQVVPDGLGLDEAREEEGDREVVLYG
The assay is described as follows: SPR, Biacore T200, TRB3 amine-coupled to chip, peptide as analyte, 25° C. As for the experimental part:
The surface plasmon resonance experiment was carried out in a surface plasmon resonator Biacore T200, and the procedure was carried out in accordance with the instructions of the plasma resonator Biacore T200. Specific steps are as follows:
1. Purified TRB3 protein (purchased from RD) was coupled to a CMS chip (purchased from GE) by amidogen, and the unbound protein was eluted at a flow rate of 10 μL/min. The surface of the chip was equilibrated for 2 hours. Among them, the specific steps of amidogen coupling, elution and equilibration refer to the relevant instruction of GE's CMS chip.
2. […] The buffer used was HBS-EP buffer [0.01 M HEPES, 0.15 M NaCl, 3 mM EDTA and 0.005% (w/w) surfactant TWEEN20]. Biacore T200's built-in analysis software was used to simulate the binding curves of different concentrations of peptides to TRB3. FIG. 4-1, 4-2 and Table 1 illustrate that peptides MR2, S1, S2, S3, S4, S5, S6, S7, S8, S9, S10 and S11 can all interacted with the TRB3 protein.
Broadly, the Kd is the equilibrium constant for the complex coming apart. For HLMACFT[S5]AKK[S5]KKR (staple 8-12, Stapled variant of MR2) [polypeptide S8], the Kd came to 35.9 nM.

As for HLMACFTCA[S5]KLK[S5]R (staple 10-14; cysteine pairing not given here, Stapled variant of MR2) [polypeptide S10], the Kd is 29.3 nM.

Molecule [S5]LMA[S5]FTCAKKLKKR (staple 1-5, Stapled variant of MR2) [polypeptide S1] yielded a Kd of 20.2 nM.

Take HLMAC[S5]TCA[S5]KLKKR (staple 6-10; cysteine pairing not given here, Stapled variant of MR2) [polypeptide S6]: the Kd worked out at 49.6 nM.

With HLMACFTC[S5]KKL[S5]KR (staple 9-13; cysteine pairing not given here, Stapled variant of MR2) [polypeptide S9], the Kd was found to be 37.1 nM.

On to HLMA[S5]FTC[S5]KKLKKR (staple 5-9, Stapled variant of MR2) [polypeptide S5], for which the affinity, expressed as Kd, was 11.5 nM.

In turn, HLM[S5]CFT[S5]AKKLKKR (staple 4-8, Stapled variant of MR2) [polypeptide S4] returned a Kd of 9.63 nM.

In the case of B1, the affinity, expressed as Kd, was 43.3 nM.

On to HLMACFTCAK[S5]LKK[S5] (staple 11-15; cysteine pairing not given here, Stapled variant of MR2) [polypeptide S11], for which binding was characterised by a dissociation constant (Kd) of 37.7 nM.

HL[S5]ACF[S5]CAKKLKKR (staple 3-7; cysteine pairing not given here, Stapled variant of MR2) [polypeptide S3] yielded a Kd of 42.7 nM.

For the molecule H[S5]MAC[S5]TCAKKLKKR (staple 2-6; cysteine pairing not given here, Stapled variant of MR2) [polypeptide S2], the Kd was 19.1 nM.

Molecule HLMACF[S5]CAK[S5]LKKR (staple 7-11; cysteine pairing not given here, Stapled variant of MR2) [polypeptide S7] returned a Kd of 8.95 nM.
